# Laboratory results as given in PMC9352680, “A comprehensive thermodynamic model for RNA binding by the Saccharomyces cerevisiae Pumilio protein PUF4”.
# Changes are numbered by the printed parent chain. In names and notes the source's numbering stands.
# T1: PUF4 RNA-binding domain (Saccharomyces cerevisiae, UniProt P25339 537-888)
# T1 sequence: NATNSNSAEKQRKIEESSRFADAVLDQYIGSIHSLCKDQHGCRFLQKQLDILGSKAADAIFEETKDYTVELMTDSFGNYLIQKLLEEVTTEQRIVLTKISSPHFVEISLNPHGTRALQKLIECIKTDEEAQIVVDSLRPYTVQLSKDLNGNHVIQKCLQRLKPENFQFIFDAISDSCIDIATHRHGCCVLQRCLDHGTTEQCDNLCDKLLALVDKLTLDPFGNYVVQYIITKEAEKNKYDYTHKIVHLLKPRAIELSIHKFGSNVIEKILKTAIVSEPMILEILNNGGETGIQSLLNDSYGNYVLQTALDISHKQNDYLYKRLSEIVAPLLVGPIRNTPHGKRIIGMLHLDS
# B1: Ib_S2_P3E.1_K3.1_C3.1_H3.1_A3.1_F3.1_[T7C]_[A8T]_T3.1 (ssRNA)
# RNA: UUUGAUUAAUAUGAUAUCGUUCUUUCUUGUAUACUUUCUUUCUCGAUAUCAUAUUAAUCUUU
# B2: Ic_S2_P3E.1_K3.1_C3.1_H3.1_A3.1_F3.1_[T7A]_[A8C]_T3.1 (ssRNA)
# RNA: B1 RNA with C34A, U35C
# B3: Ic_S2_P3E.1_K3.1_C3.1_H3.1_A3.1_F3.1_[T7A]_[A8T]_T3.1 (ssRNA)
# RNA: B1 RNA with C34A
# B4: Ib_S2_P3E.1_K3.1_C3.1_H3.1_[T1C]_A3.1_F3.1_[T7C]_T3.1 (ssRNA)
# RNA: B1 RNA with U28C, U35A
# B5: Ib_S2_P3E.1_K3.1_C3.1_H3.1_[T1C]_A3.1_F3.1_[T7A]_T3.1 (ssRNA)
# RNA: B1 RNA with U28C, C34A, U35A
# Biological target: T1, PUF4 RNA-binding domain
# Test: Mg; RNA-MaP; 20 mM Na-HEPES pH 7.4, 30 mM KOAc, 0.75 mM MgCl2, 0.1% Tween-20, 5% glycerol, 0.1 mg/mL BSA, 2 mM DTT; 25 C; 0.0125-409.6 nM protein
# Conditions: tags: N-His6-TEV cleaved; C-SNAP kept, Cy3B-labelled; label: tethered on chip by stalled RNA polymerase
row,Binder,Kd
1,UCUCUUUGUAUAUUCUCUCAUCUCUU (ssRNA) [Ie_S1_P4E.1_K4.1_C4.1_H4.1_A4.1_F4.1_[+8CTCTC]_T4.1],5.64 nM
2,UCUCUUUGUAUCCUCAUUAUCUCUU (ssRNA) [Ie_S1_P4E.1_K4.1_C4.1_H4.1_A4.1_[+5CCTC]_F4.1_T4.1],38.3 nM
3,UCUCUUUGUAUAUUCCUCUAUCUCUU (ssRNA) [Ie_S1_P4E.1_K4.1_C4.1_H4.1_A4.1_F4.1_[+8CCTCT]_T4.1],6.71 nM
4,UCUCUUUGUAUUCUCAUUAUCUCUU (ssRNA) [Ie_S1_P5E.1_K5.1_C5.1_H5.1_A5.1_[+6CTC]_F5.1_T5.1],33.8 nM
5,UCUCUUUGUAUAUUUUCCAUCUCUU (ssRNA) [Ie_S1_P4E.1_K4.1_C4.1_H4.1_A4.1_F4.1_[+8TTCC]_T4.1],5.8 nM
6,UCUCUUUGUAUCCUCUAUUAUCUCUU (ssRNA) [Ie_S1_P5E.1_K5.1_C5.1_H5.1_A5.1_[+5CCTC]_F5.1_T5.1],23.9 nM
7,UCUCUUUGUAUAUUUCUAUCUCUU (ssRNA) [Ie_S1_P4E.1_K4.1_C4.1_H4.1_A4.1_[+7TTC]_F4.1_T4.1],5.38 nM
8,UCUCUUUGUAUCCCUAUUAUCUCUU (ssRNA) [Ie_S1_P5E.1_K5.1_C5.1_H5.1_A5.1_[+5CCC]_F5.1_T5.1],20 nM
9,UCUCUUUGUAUAUCUCUUAUCUCUU (ssRNA) [Ie_S1_P4E.1_K4.1_C4.1_H4.1_A4.1_[+6TCTC]_F4.1_T4.1],24.4 nM
10,UCUCUUUGUAUAUCCCUUAUCUCUU (ssRNA) [Ie_S1_P4E.1_K4.1_C4.1_H4.1_A4.1_[+7CCCT]_F4.1_T4.1],23.4 nM
11,UCUCUUUGUAUACCUCUUUAUCUCUU (ssRNA) [Ie_S1_P4E.1_K4.1_C4.1_H4.1_A4.1_[+6CCTCT]_F4.1_T4.1],27.5 nM
12,UCUCUUUGUAUUUCCAUUAUCUCUU (ssRNA) [Ie_S1_P4E.1_K4.1_C4.1_H4.1_A4.1_[+5TTCC]_F4.1_T4.1],96.6 nM
13,UCUCUUUGUAUAUUCCUAUCUCUU (ssRNA) [Ie_S1_P4E.1_K4.1_C4.1_H4.1_A4.1_F4.1_[+8CCT]_T4.1],8.2 nM
14,UCUCUUUGUAUAUUUUCCUAUCUCUU (ssRNA) [Ie_S1_P4E.1_K4.1_C4.1_H4.1_A4.1_F4.1_[+8TTCCT]_T4.1],5.96 nM
15,UCUCUUUGUAUCCCAUUAUCUCUU (ssRNA) [Ie_S1_P4E.1_K4.1_C4.1_H4.1_A4.1_[+5CCC]_F4.1_T4.1],76.1 nM
16,UCUCUUUGUAUAUUCUAUCUCUU (ssRNA) [Ie_S1_P4E.1_K4.1_C4.1_H4.1_A4.1_F4.1_[+8CT]_T4.1],5.4 nM
17,UCUCUUUGUAUACCCUUUAUCUCUU (ssRNA) [Ie_S1_P4E.1_K4.1_C4.1_H4.1_A4.1_[+6CCCT]_F4.1_T4.1],48.6 nM
18,UCUCUUUGUAUUCCAUUAUCUCUU (ssRNA) [Ie_S1_P4E.1_K4.1_C4.1_H4.1_A4.1_[+5TCC]_F4.1_T4.1],62 nM
19,UCUCUUUGUAUACCUUAUCUCUU (ssRNA) [Ie_S1_P4E.1_K4.1_C4.1_H4.1_A4.1_[+6CC]_F4.1_T4.1],8.34 nM

row,Binder,Kd
1,UCUCUUUGUAUAUUUCCUUAUCUCUU (ssRNA) [Ie_S1_P4E.1_K4.1_C4.1_H4.1_A4.1_[+7TTCCT]_F4.1_T4.1],3.91 nM
2,UCUCUUUGUAUAUCCCUAUCUCUU (ssRNA) [Ie_S1_P4E.1_K4.1_C4.1_H4.1_A4.1_[+7CCC]_F4.1_T4.1],31.9 nM
3,UCUCUUUGUAUACCCUUAUCUCUU (ssRNA) [Ie_S1_P4E.1_K4.1_C4.1_H4.1_A4.1_[+6CCC]_F4.1_T4.1],35.3 nM
4,UCUCUUUGUAUAUCUCUUUAUCUCUU (ssRNA) [Ie_S1_P4E.1_K4.1_C4.1_H4.1_A4.1_[+6TCTCT]_F4.1_T4.1],14.7 nM
5,UCUCUUUGUAUAUUCCCUAUCUCUU (ssRNA) [Ie_S1_P4E.1_K4.1_C4.1_H4.1_A4.1_F4.1_[+8CCCT]_T4.1],6.32 nM
6,UCUCUUUGUAUAUUCCUCAUCUCUU (ssRNA) [Ie_S1_P4E.1_K4.1_C4.1_H4.1_A4.1_F4.1_[+8CCTC]_T4.1],6.83 nM
7,UCUCUUUGUAUAUUUUCAUCUCUU (ssRNA) [Ie_S1_P4E.1_K4.1_C4.1_H4.1_A4.1_F4.1_[+8TTC]_T4.1],6.76 nM
8,UCUCUUUGUAUAUCUUUAUCUCUU (ssRNA) [Ie_S1_P4E.1_K4.1_C4.1_H4.1_A4.1_[+6TCT]_F4.1_T4.1],13.9 nM
9,UCUCUUUGUAUAUCUCUCUAUCUCUU (ssRNA) [Ie_S1_P4E.1_K4.1_C4.1_H4.1_A4.1_[+7CTCTC]_F4.1_T4.1],15.9 nM
10,UCUCUUUGUAUUUCCUAUUAUCUCUU (ssRNA) [Ie_S1_P5E.1_K5.1_C5.1_H5.1_A5.1_[+5TTCC]_F5.1_T5.1],15.9 nM
11,UCUCUUUGUAUACUCUUUAUCUCUU (ssRNA) [Ie_S1_P4E.1_K4.1_C4.1_H4.1_A4.1_[+6CTCT]_F4.1_T4.1],12.6 nM
12,UCUCUUUGUAUAUUCUCAUCUCUU (ssRNA) [Ie_S1_P4E.1_K4.1_C4.1_H4.1_A4.1_F4.1_[+8CTC]_T4.1],10.8 nM
13,UCUCUUUGUAUUUCAUUAUCUCUU (ssRNA) [Ie_S1_P4E.1_K4.1_C4.1_H4.1_A4.1_[+5TTC]_F4.1_T4.1],39.7 nM
14,UCUCUUUGUAUCUCAUUAUCUCUU (ssRNA) [Ie_S1_P4E.1_K4.1_C4.1_H4.1_A4.1_[+5CTC]_F4.1_T4.1],37.1 nM
15,UCUCUUUGUAUCCCUUAUUAUCUCUU (ssRNA) [Ie_S1_P4E.1_K4.1_C4.1_H4.1_A4.1_[+5CCCTT]_F4.1_T4.1],41 nM
16,B1,3.86 nM
17,B2,27.7 nM
18,B3,6.77 nM
19,B4,649 nM

row,Binder,Kd
1,B5,> 2300 nM
2,UCUCUUUGUAUAUUCUUAUCUCUU (ssRNA) [Ie_S1_P4E.1_K4.1_C4.1_H4.1_A4.1_[+6TTC]_F4.1_T4.1],6.67 nM
3,UCUCUUUGUAUAUCUUAUCUCUU (ssRNA) [Ie_S1_P4E.1_K4.1_C4.1_H4.1_A4.1_[+7CT]_F4.1_T4.1],6.9 nM
4,UCUCUUUGUAUAUUCUCUAUCUCUU (ssRNA) [Ie_S1_P4E.1_K4.1_C4.1_H4.1_A4.1_F4.1_[+8CTCT]_T4.1],7.11 nM
5,UCUCUUUGUAUACCUCUUAUCUCUU (ssRNA) [Ie_S1_P4E.1_K4.1_C4.1_H4.1_A4.1_[+6CCTC]_F4.1_T4.1],41.5 nM
6,UCUCUUUGUAUAUCCUCUUAUCUCUU (ssRNA) [Ie_S1_P4E.1_K4.1_C4.1_H4.1_A4.1_[+7CCTCT]_F4.1_T4.1],31.7 nM
7,UCUCUUUGUAUAUUUUAUCUCUU (ssRNA) [Ie_S1_P4E.1_K4.1_C4.1_H4.1_A4.1_[+7TT]_F4.1_T4.1],4.6 nM
8,UCUCUUUGUAUAUUUCCUAUCUCUU (ssRNA) [Ie_S1_P4E.1_K4.1_C4.1_H4.1_A4.1_[+7TTCC]_F4.1_T4.1],6.97 nM
9,UCUCUUUGUAUAUUUCAUCUCUU (ssRNA) [Ie_S1_P4E.1_K4.1_C4.1_H4.1_A4.1_F4.1_[+8TC]_T4.1],5.5 nM
10,UCUCUUUGUAUACUCUUAUCUCUU (ssRNA) [Ie_S1_P4E.1_K4.1_C4.1_H4.1_A4.1_[+6CTC]_F4.1_T4.1],8.94 nM
11,UCUCUUUGUAUAUUUCUCUAUCUCUU (ssRNA) [Ie_S1_P4E.1_K4.1_C4.1_H4.1_A4.1_F4.1_[+8TCTCT]_T4.1],6.66 nM
12,UCUCUUUGUAUACUUUUAUCUCUU (ssRNA) [Ie_S1_P4E.1_K4.1_C4.1_H4.1_A4.1_[+6CTT]_F4.1_T4.1],6.8 nM
13,UCUCUUUGUAUAUCCUAUCUCUU (ssRNA) [Ie_S1_P4E.1_K4.1_C4.1_H4.1_A4.1_[+7CC]_F4.1_T4.1],14.2 nM
14,UCUCUUUGUAUAUUUUUAUCUCUU (ssRNA) [Ie_S1_P4E.1_K4.1_C4.1_H4.1_A4.1_[+7TTT]_F4.1_T4.1],5.93 nM
15,UCUCUUUGUAUUCUCUAUUAUCUCUU (ssRNA) [Ie_S1_P5E.1_K5.1_C5.1_H5.1_A5.1_[+5TCTC]_F5.1_T5.1],22.9 nM
16,UCUCUUUGUAUACUCUCUUAUCUCUU (ssRNA) [Ie_S1_P4E.1_K4.1_C4.1_H4.1_A4.1_[+6CTCTC]_F4.1_T4.1],10.9 nM
17,UCUCUUUGUAUAUCCUCUAUCUCUU (ssRNA) [Ie_S1_P4E.1_K4.1_C4.1_H4.1_A4.1_[+7CCTC]_F4.1_T4.1],25.3 nM
18,UCUCUUUGUAUAUCCUUAUCUCUU (ssRNA) [Ie_S1_P4E.1_K4.1_C4.1_H4.1_A4.1_[+7CCT]_F4.1_T4.1],16.4 nM
